# From patent EP3620472A1 (Sanofi, dated 2020)
# Positions count from the first letter of the chain named. “And” between values parts separate entries of the source, which are not always exact repeats. Equal values may be shown once. Read-outs that look alike come from different tables or passages of the source.
# B1: C45 (antibody, mouse IgG2b, V domains shown)
# VH: QVQLQQSGVELVRPGTSVKVSCKASGYAFTNYLIEWIKQRPGQGLEWIGVIHPGSGVTNYNEKFKGKAILTADKSSSTAYMQLSSLTSDDSAVYFCARDYYGSSHGLMDYWGQGTSVTVSS
# VL: DIKMTQSPSSMYASLGERVTITCKASQDINSYLSWFQQKPGKSPKTLIYRANRLVDGVPSRFSGSGSGQDYSLTISSLEYEDMGIYYCLQYDEFPRTFGGGTKLEIK
# B2: APG (antibody, V domains shown)
# VH: QVKLQESGPELVKPGASVKISCKASGYSFTDYNMNWVKQSKGKSLEWIGIIHPNSGTTTYNQKFKGKATLTVDQSSSTAYLQLNSLTSEDSAVYYCARSKLRFFDYWGQGTTVTVSS
# VL: B1 VL with M4L, N30Y, V55I, D82H, R96F, G100S
# notes: mouse antibody; also called mAPG; mouse APG
# B3: B28 (antibody, mouse IgG2b, V domains shown)
# VH: QVQLQQSGAELMKPGASVKISCKATGYTFSISWIEWIKQRPGGLEWIGKILPGSGGANYNEKFKGKATVTADTSSNTVYMQLSSLTSEDSAVYYCARLSTGTRGAFDYWGQGTTLTVSS
# VL: DIQLTQSPASLSASVGATVTITCRASENVYSYLAWYQQKQGKSPQLLVYNAKTLAEGVPSRFSGSGSGTQFSLKINYLQPEDFGSYYCQHHYGTPPTFGGGTKVEIKR
# B4: B109 (antibody)
# chain 1: SGQGLDWIGAIYPGNSDTTYNQKFEDKAKLTAVASASTAYMEVSSLTNEDSAVYYCTRGLRRWGAMDYWGQGTSVTVSS
# chain 2: DIVMTQSHKFMSTSAGDRVSIPCKASQDVSSAVAWYQQKLGQSPKLLIYSASFRYTGVPDRFTGSGSGTDFTFTISSVQAEDLAVYYCQQHYSSPYTFGGGTNLEIK
# B5: E16 (antibody, mouse IgG1, V domains shown)
# VH: EVKLVESGGGLVKPGGSLKLSCAASGFTFSNYGMSWVRQTPEKGLGWVASLRTGGNTYYSDSVKGRFTISRDNDRNILYLQMSSLTSEDTAVYYCARGLRHWGYFDVWGAGTTVTVSS
# VL: DIVMTQSHKFMSTSVGDRVNITCKASQDVSTAVGWYQQEPGQSPKLLIYSASNRHTGVPDRFTGSGSGTDFTFTISSVQAEDLAVYYCQQHYSSPWTFGGGTKLEIK
# B6: A44-hv11 (antibody, V domains shown)
# VH: QMTLKESGPTLVKPTQTLSLTCSVSGDSMTNGYWNWIRQFPGKALEYMGYITYSGSTYYNPSLKGRITITRDTSKNQYYLTLSSVTTVDTATYYCARWHYGSPYYFDYWGQGTTLTVSS
# VL: DIKMTQSPSSLSASVGDRVTITCKASQDINSYLSWLQQKPGKSPKTLIYRAQRSVEGVPSRFSGSGSGQDYSLTISSLQPEDLGIYYCLQYDEFPPTFGGGTKLEIK
# notes: constant regions only as pictures; also called A44V11; A44v11
# B7: A44-hv13 (antibody, V domains shown)
# VH: QMQLQESGPGLVKPSETLSLTCTVSGDSMTNGYWNWIRQPPGKGLEYMGYITYSGSTYYNPSLKSRITISRDTSKNQYSLKLSSVTAADTAVYYCARWHYGSPYYFDYWGQGTLVTVSS
# VL: B6 VL
# B8: A44-hv12 (antibody, V domains shown)
# VH: B6 VH
# VL: B6 VL with G84A, I85T
# B9: A44-hv14 (antibody, V domains shown)
# VH: B7 VH
# VL: B6 VL with G84A, I85T
# B10: A71 (antibody, mouse IgG1, V domains shown)
# VH: QVQLQQSGAELMKPGASVKISCKATGFTFSTYWIEWIKQRPGHGLDWIGEILPGSGNTNYNEKFKGKATFTADTSSNTVYMQLSSLTSEDSAVYYCARGGLYYNLDSWGQGTTLTVSS
# VL: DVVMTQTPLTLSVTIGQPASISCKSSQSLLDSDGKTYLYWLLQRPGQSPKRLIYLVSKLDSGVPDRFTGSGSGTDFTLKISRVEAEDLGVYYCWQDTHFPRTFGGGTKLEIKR
# B11: A105 (antibody, mouse IgG1, V domains shown)
# VH: B10 VH with T31I, I37V, H43L, D46E, N57S, V79A, Y80F, N104D, S107Y, T113I
# VL: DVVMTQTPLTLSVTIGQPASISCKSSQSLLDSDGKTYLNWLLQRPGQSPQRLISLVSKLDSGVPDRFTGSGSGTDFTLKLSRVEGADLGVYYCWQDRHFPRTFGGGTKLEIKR
# B12: APGv2 (antibody, V domains shown)
# VH: QVQLVQSGSELKKPGASVKVSCKASGYSFTDYNMNWVRQAPGQGLEWIGIIHPNSGTTTYNQKFKGRAVLSVDQSVSTAYLQISSLKAEDTAVYYCARSKLRFFDYWGQGTLVTVSS
# VL: DIQLTQSPSSLSASVGDRVTITCKASQDIYSYLSWFQQKPGKAPKTLIYRANRLIDGVPSRFSGSGSGQDYTFTISSLQPEDIATYYCLQYDEFPFTFGQGTKLEIK
# notes: humanized; also called APG variant 2
# B13: APGv4 (antibody, V domains shown)
# VH: B12 VH with S9A, L11V, V69T, S71T, V76T, L81M, Q82E, I83L, K87R, A88S
# VL: B12 VL
# notes: humanized; also called APG variant 4
# B14: A44 (antibody, mouse IgG1, V domains shown)
# VH: EMQLQESGPSLVKPSQTLSLTCSVTGDSMTNGYWNWIRKFPGNKLEYMGYITYSGSTYYNPSLKGRISITRNTSKNQYYLQLSSVTTEDTATYYCARWHYGSPYYFDYWGQGTTLTVSS
# VL: DIKMTQSPSSMYASLGERVTITCKASQDINSYLSWLQQKPGKSPKTLIYRANRSVDGVPSRFSGSGSGQDYSLTISSLEYEDMGIYYCLQYDEFPPTFGGGTKLEIKR
# Columns and labels:
# [1] = target: T1, glycosylated human PAI-1 (active form) (human, UniProt P05121 24-402, glycosylated (sites not given)); experiment: cell-based or functional assay
# [2] = target: T1, glycosylated human PAI-1 (active form); experiment: Biacore 2000, mAb captured, single-cycle kinetics
# endogenous human PAI-1 [3] = target: T2, endogenous human PAI-1 (human, UniProt P05121 24-402); experiment: cell-based or functional assay
# [4] = target: T1, glycosylated human PAI-1 (active form); experiment: cell-based or functional assay; remark: listed apart in the source
# [5] = target: T1, glycosylated human PAI-1 (active form); experiment: cell-based or functional assay; remark: listed apart in the source
# human PAI-1 [6] = target: T3, human PAI-1 (human, UniProt P05121 24-402); experiment: Biacore supernatant screen, graded off-rate
# T3 construct: serpin; also called hPAI-1
# [7] = target: T1, glycosylated human PAI-1 (active form); experiment: cell-based or functional assay; remark: listed apart in the source
# endogenous human PAI-1 [8] = target: T2, endogenous human PAI-1; experiment: cell-based or functional assay; remark: listed apart in the source
# cynomolgus PAI-1 [9] = target: T4, cynomolgus PAI-1 (cynomolgus (Macaca fascicularis), UniProt P05121 24-402 (human entry)); experiment: value used to set up the HDX MS samples
# T4 construct: produced in-house in E. coli; latent conformation in the crystal; also called cyno PAI-1; cPAI-1
# cynomolgus PAI-1 [10] = target: T4, cynomolgus PAI-1; experiment: cell-based or functional assay
# human PAI-1 [11] = target: T3, human PAI-1; experiment: cell-based or functional assay
# endogenous human PAI-1 [12] = target: T2, endogenous human PAI-1; experiment: cell-based or functional assay; remark: listed apart in the source
binder,measurement,setting,value
B1,"plasmin generation, IC50abs",[1],6.5 nM
same,"plasmin generation, Imax",[1],97%
B2,kon,[2],3.82e+06 M⁻¹ s⁻¹
same,"human plasma, uPA-PAI-1 ELISA IC50abs",endogenous human PAI-1 [3],1.81 nM
same,"human plasma, uPA-PAI-1 ELISA Imax",endogenous human PAI-1 [3],89.7%
same,human plasma clot lysis IC50,[4],2.34 nM
same,human plasma clot lysis Imax @ 100 nM,[4],123%
B3,"plasmin generation, IC50abs",[1],7.28 nM
same,"plasmin generation, Imax",[1],90%
B4,Chromogenic Assays,[5],0.23 nM
same,koff,human PAI-1 [6],≤ 0.0001 s⁻¹
same,"plasmin generation, IC50abs",[1],6.11 nM
same,"plasmin generation, Imax",[1],94%
B5,"plasmin generation, IC50abs",[1],4.74 nM
same,"plasmin generation, Imax",[1],95%
B6,human plasma clot lysis IC50,[7],2 nM
same,"human liver lysate, uPA-PAI-1 ELISA IC50",endogenous human PAI-1 [8],0.0365 nM and 0.0503 nM and 0.0465 nM
same,"human liver lysate, uPA-PAI-1 ELISA IC50, mean",endogenous human PAI-1 [8],0.0444 nM
same,Kd,cynomolgus PAI-1 [9],< 0.05 nM
same,human plasma clot lysis IC50,[4],1.38 nM
same,human plasma clot lysis Imax @ 100 nM,[4],113%
same,Cyno PAI-1 neutralization IC50,cynomolgus PAI-1 [10],0.0424 nM
same,Cyno PAI-1 neutralization Y50%,cynomolgus PAI-1 [10],50.8%
same,uPA-PAI-1 complex ELISA IC50,human PAI-1 [11],0.131 nM
same,uPA-PAI-1 complex ELISA Y50%,human PAI-1 [11],50.8%
same,uPA-PAI-1 complex ELISA IC50,endogenous human PAI-1 [12],0.0157 nM
same,uPA-PAI-1 complex ELISA Y50%,endogenous human PAI-1 [12],37.5%
B7,Cyno PAI-1 neutralization IC50,cynomolgus PAI-1 [10],0.0281 nM
same,Cyno PAI-1 neutralization Y50%,cynomolgus PAI-1 [10],52.8%
same,uPA-PAI-1 complex ELISA IC50,human PAI-1 [11],0.166 nM
same,uPA-PAI-1 complex ELISA Y50%,human PAI-1 [11],52.8%
same,uPA-PAI-1 complex ELISA IC50,endogenous human PAI-1 [12],0.0311 nM
same,uPA-PAI-1 complex ELISA Y50%,endogenous human PAI-1 [12],61.4%
B8,Cyno PAI-1 neutralization IC50,cynomolgus PAI-1 [10],0.0266 nM
same,Cyno PAI-1 neutralization Y50%,cynomolgus PAI-1 [10],53.5%
same,uPA-PAI-1 complex ELISA IC50,human PAI-1 [11],0.114 nM
same,uPA-PAI-1 complex ELISA Y50%,human PAI-1 [11],53.5%
same,uPA-PAI-1 complex ELISA IC50,endogenous human PAI-1 [12],0.00335 nM
same,uPA-PAI-1 complex ELISA Y50%,endogenous human PAI-1 [12],37.7%
B9,Cyno PAI-1 neutralization IC50,cynomolgus PAI-1 [10],0.0287 nM
same,Cyno PAI-1 neutralization Y50%,cynomolgus PAI-1 [10],52.5%
same,uPA-PAI-1 complex ELISA IC50,human PAI-1 [11],0.0563 nM
same,uPA-PAI-1 complex ELISA Y50%,human PAI-1 [11],52.5%
same,uPA-PAI-1 complex ELISA IC50,endogenous human PAI-1 [12],0.0586 nM
same,uPA-PAI-1 complex ELISA Y50%,endogenous human PAI-1 [12],73.9%
B10,"plasmin generation, IC50abs",[1],8.61 nM
same,"plasmin generation, Imax",[1],90%
B11,"plasmin generation, IC50abs",[1],27 nM
same,"plasmin generation, Imax",[1],88%
B12,kon,[2],6.58e+06 M⁻¹ s⁻¹
same,"human plasma, uPA-PAI-1 ELISA IC50abs",endogenous human PAI-1 [3],0.962 nM
same,"human plasma, uPA-PAI-1 ELISA Imax",endogenous human PAI-1 [3],94.5%
same,Kd,cynomolgus PAI-1 [9],< 0.05 nM
same,human plasma clot lysis IC50,[4],2.08 nM
same,human plasma clot lysis Imax @ 100 nM,[4],114%
B13,kon,[2],9.48e+06 M⁻¹ s⁻¹
same,"human plasma, uPA-PAI-1 ELISA IC50abs",endogenous human PAI-1 [3],1.28 nM
same,"human plasma, uPA-PAI-1 ELISA Imax",endogenous human PAI-1 [3],94.4%
same,human plasma clot lysis IC50,[4],2.82 nM
same,human plasma clot lysis Imax @ 100 nM,[4],116%
B14,"plasmin generation, IC50abs",[1],3.32 nM
same,"plasmin generation, Imax",[1],97%
